Data from US20260201033A1 (LTZ THERAPEUTICS, published 2026).

Tests used:
[1] = target: T1, CD79b on Ramos cells and on endogenous B cells of human PBMCs (human, UniProt P40259 29-229); assay: cell-based or functional assay
T1 sequence (looked up): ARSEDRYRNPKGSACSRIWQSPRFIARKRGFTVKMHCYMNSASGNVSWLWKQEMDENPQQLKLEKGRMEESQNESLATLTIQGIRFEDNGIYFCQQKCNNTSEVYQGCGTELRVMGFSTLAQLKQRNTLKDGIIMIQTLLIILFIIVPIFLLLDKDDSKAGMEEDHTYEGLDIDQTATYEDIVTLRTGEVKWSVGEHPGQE

[2] = target: T1, CD79b on Ramos cells and on endogenous …; assay: cell-based or functional assay; remark: listed apart in the source
[3] = target: T1, CD79b on Ramos cells and on endogenous …; assay: cell-based or functional assay; remark: listed apart in the source
[4] = target: T1, CD79b on Ramos cells and on endogenous …; assay: cell-based or functional assay; remark: listed apart in the source
[5] = target: T1, CD79b on Ramos cells and on endogenous …; assay: cell-based or functional assay; remark: listed apart in the source
[6] = target: T1, CD79b on Ramos cells and on endogenous …; assay: flow cytometry on Ramos cells (CD79b+), anti-human IgG PE, MFI (PE)
[7] = target: T1, CD79b on Ramos cells and on endogenous …; assay: cell-based or functional assay; remark: listed apart in the source
[8] = target: T2, human EGFR (ACROBiosystems, Cat #: EGR-H5222) (human, UniProt P00533 25-645); assay: ELISA, plate coated with human EGFR
T2 construct: Bought protein; also called recombinant human EGFR protein

HER2 on SK-BR-3 cells [9] = target: T3, HER2 on SK-BR-3 cells (UniProt P04626 23-1255, limits assumed); assay: cell-based or functional assay
[10] = target: T4, Human C-type lectin domain family 5 member A (CLEC5A), endogenous on human monocytes and M0 macrophages (human, UniProt Q9NY25 1-188); assay: flow cytometry on human M0 macrophages, anti-human IgG PE
T4 construct: Endogenous CLEC5A on primary human monocytes and monocyte-derived M0 macrophages; also called MDL-1; M0 macrophages (CLEC5A+) cells
T4 sequence: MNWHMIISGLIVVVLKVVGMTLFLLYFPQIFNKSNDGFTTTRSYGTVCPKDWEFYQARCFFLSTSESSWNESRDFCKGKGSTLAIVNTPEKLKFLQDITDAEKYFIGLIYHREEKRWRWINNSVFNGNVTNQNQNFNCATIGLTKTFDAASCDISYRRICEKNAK

HER2 on SK-BR-3 cells [11] = target: T3, HER2 on SK-BR-3 cells; assay: cell-based or functional assay; remark: listed apart in the source

B1: CD79b/5C7 (2+2 B) Fc-optimized (bispecific antibody, human IgG1, kappa)
heavy: EQQLVETGGGLIQPGGSLRLSCAASGFTINIDYWISWVRQAPGKGLEWIGIIDPGDGTTYFAIWVSGRFTISFDNSKNTVYLQMNSLRAEDTAVYFCVREFSASAYQYDLWGPGTLVTVSSASTKGPSVFPLAPSSKSTSGGTAALGCLVKDYFPEPVTVSWNSGALTSGVHTFPAVLQSSGLYSLSSVVTVPSSSLGTQTYICNVNHKPSNTKVDKKVEPKSCDKTHTCPPCPAPELLAGPSVFLFPPKPKDTLMISRTPEVTCVVVDVSHEDPEVKFNWYVDGVEVHNAKTKPREEQYNSTYRVVSVLTVLHQDWLNGKEYKCKVSNKALPLPEEKTISKAKGQPREPQVYTLPPSRDELTKNQVSLTCLVKGFYPSDIAVEWESNGQPENNYKTTPPVLDSDGSFFLYSKLTVDKSRWQQGNVFSCSVMHEALHNHYTQKSLSLSPGGGGGSGGGGSGGGGSDIQMTQSPSSLSASVGDRVTITCQASESVDRNNRLAWFQQKPGKPPKLLIYTTSTLASGVPSRFSGSGSGTDFTLTISSLQPEDVATYYCAGYRGAHTDGDAFGCGTKVEIKGGGGSGGGGSGGGGSGGGGSEQQLVESGGGLVKPGGSLRLSCAASGFSFSRSSYMCWVRQAPGKCLEWIGCLSVGDGHTYYASWAKGRFTISKDSAKNSVYLQMNSLRAEDTAVYFCARAPSYSGDGGHGYDLWGPGTLVTVSS
light: ELVMTQSPATLSVSPGERATLSCRASEDIENYLAWYQQKPGQPPRLLIYRASTLSSGVPARFSGSGSGTEFTLTISSLQSEDFAVYYCQQGYRNSNVDNPFGGGTKVEIKRTVAAPSVFIFPPSDEQLKSGTASVVCLLNNFYPREAKVQWKVDNALQSGNSQESVTEQDSKDSTYSLSSTLTLSKADYEKHKVYACEVTHQGLSSPVTKSFNRGEC
In the case of B1, the “IC50 (nM), Ramos cell killing by M0 macrophages, Donor 022” value [1] is reported as 0.012 nM, the “IC50 (nM), Ramos cell killing by M0 macrophages, Donor 159” value [1] is reported as 0.001 nM and the “IC50 (nM), Ramos cell killing by M0 macrophages, Donor 161” value [1] is reported as 0.001 nM. For the same binder, the “IC50 (nM), Ramos cell killing by M0 macrophages, Donor 431” value [1] was 0.002 nM, the “IC50 (nM), Ramos cell killing by PBMCs (test 3), Donor 281” value [2] was 0.28 nM and the “IC50 (nM), Ramos cell killing by PBMCs (test 3), Donor 367” value [2] was 0.0295 nM. For the same binder, the “IC50 (nM), killing of endogenous B cells by PBMCs, Donor 234” value [3] was 0.0156 nM, the “IC50 (nM), Ramos cell killing by M1 macrophages, Donor 431” value [4] was 0.002 nM and the “IC50 (nM), Ramos cell killing by M2 macrophages, Donor 022” value [5] was 0.006 nM. For the same binder, the “IC50 (nM), Ramos cell killing by M2 macrophages, Donor 431” value [5] was 0.001 nM, the “EC50 (read off the curve)” value [6] was roughly 1000 pM and the “IC50 (nM), Ramos cell killing by PBMCs (test 2), Donor 234” value [7] was 0.0298 nM. The “IC50 (nM), Ramos cell killing by PBMCs (test 2), Donor 431” value [7] was 0.0168 nM.

B2: Necitumumab (antibody, V domains shown)
VH: QVQLQESGPGLVKPSQTLSLTCTVSGGSISSGDYYWSWIRQPPGKGLEWIGYIYYSGSTDYNPSLKSRVTMSVDTSKNQFSLKVNSVTAADTAVYYCARVSIFGVGTFDYWGQGTLVTVSS
VL: EIVMTQSPATLSLSPGERATLSCRASQSVSSYLAWYQQKPGQAPRLLIYDASNRATGIPARFSGSGSGTDFTLTISSLEPEDFAVYYCHQYGSTPLTFGGGTKAEIK
Work on B2 yielded an EC50 [8] of 0.022 µg/mL.

B3: HER2/3A7 (1+1 A) Fc-silenced (bispecific antibody, human IgG1, kappa, L234A L235A)
heavy 1: not shown
heavy 2: not shown
light 1: not shown
light 2: AVVMTQTPASVEAAVGGTVTINCQASQRINNYLSWFQQKPGQPPKLLIYGAATLASGVPSRFKGSGSGTEYTLTISDLEPADAATYYCQCTYGIPSSNYGFGGGTEVVVKSSASTKGPSVFPLAPSSKSTSGGTAALGCLVKDYFPEPVTVSWNSGALTSGVHTFPAVLQSSGLYSLSSVVTVPSSSLGTQTYICNVNHKPSNTKVDKKVEPKSC
notes: also called HER2/3A7 (1+1 A) Fc-LALAPG
B3 was tested, and the “IC50 (nM), SK-BR-3 cell killing by M0 macrophages (E:T 5:1)” value (HER2 on SK-BR-3 cells [9]) was 0.114 nM and the EC50 [10] was 611 pM.

B4: HER2/5C7 (1+1 A) Fc-silenced (bispecific antibody, human IgG1, kappa, L234A L235A)
heavy 1: not shown
heavy 2: not shown
light 1: not shown
light 2: AIVMTQTPSSKSVPVGDTVTINCQASESVDRNNRLAWFQQKPGQPPKLLIYTTSTLASGVPSRFKGSGSGTHFTLTISDVVPDDAATYYCAGYRGAHTDGDAFGGGTEVVVKSSASTKGPSVFPLAPSSKSTSGGTAALGCLVKDYFPEPVTVSWNSGALTSGVHTFPAVLQSSGLYSLSSVVTVPSSSLGTQTYICNVNHKPSNTKVDKKVEPKSC
notes: also called HER2/5C7 (1+1 A) Fc-LALAPG
B4 was tested, and the “IC50 (nM), SK-BR-3 cell killing by M0 macrophages (E:T 5:1)” value (HER2 on SK-BR-3 cells [9]) was 0.148 nM, the EC50 [10] was 1490 pM and the “IC50 (nM), SK-BR-3 cell killing by M0 macrophages in the presence of hIgG1” value (HER2 on SK-BR-3 cells [11]) was 0.00632 nM. The “IC50 (nM), SK-BR-3 cell killing by M0 macrophages in the presence of media” value (HER2 on SK-BR-3 cells [11]) was 0.0481 nM and the “IC50 (nM), SK-BR-3 cell killing by M0 macrophages in the presence of plasma” value (HER2 on SK-BR-3 cells [11]) was 0.433 nM.
